Test results published in the Immune Epitope Database (IEDB).

How the values were obtained:
[1] = target: HLA-A*01:01; test: IEDB peptide-MHC binding, purified MHC/competitive/radioactivity; filed as Kd, often an IC50 or EC50 that approximates it; ≥ and ≤ were set here for values at or beyond the usual limits of such assays
[2] = target: HLA-A*30:02; test: as above
[3] = target: HLA-A*26:01; test: as above
[4] = target: HLA-A*24:02; test: as above
[5] = target: HLA-A*29:02; test: as above
[6] = target: HLA-A*23:01; test: as above
[7] = target: HLA-A*32:01; test: as above
[8] = target: HLA-A*02:01; test: IEDB peptide-MHC binding, purified MHC/competitive/fluorescence; ≥ and ≤ were set here for values at or beyond the usual limits of such assays
[9] = target: HLA-A*02:01; test: IEDB peptide-MHC binding, purified MHC/competitive/fluorescence; filed as Kd, often an IC50 or EC50 that approximates it; ≥ and ≤ were set here for values at or beyond the usual limits of such assays
[10] = source organism: SARS coronavirus Tor2
[11] = source organism: Triticum aestivum
[12] = source organism: Vaccinia virus WR
[13] = source organism: Mammarenavirus guanaritoense
[14] = source organism: Dengue virus 2 Jamaica/1409/1983
[15] = source organism: Zaire ebolavirus
[16] = source organism: Vaccinia virus Copenhagen
[17] = source organism: Mammarenavirus lassaense
[18] = source organism: Dengue virus 2 Peru/IQT2913/1996
[19] = source organism: Mammarenavirus machupoense
[20] = source organism: Mammarenavirus whitewaterense
[21] = source organism: Mammarenavirus mopeiaense
[22] = source organism: Lymphocytic choriomeningitis virus (strain Armstrong)

## VMPLSAPTL
[1]; [10]
  Kd: ≥ 78100 nM
[2]; [10]
  Kd: ≥ 75000 nM
[3]; [10]
  Kd: ≥ 77900 nM
[4]; [10]
  Kd: 13300 nM
[5]; [10]
  Kd: 7050 nM
[6]; [10]
  Kd: 6450 nM

## EFLTRNPAW
[1]; [10]
  Kd: ≥ 78100 nM
[2]; [10]
  Kd: ≥ 100000 nM
[3]; [10]
  Kd: ≥ 69000 nM
[4]; [10]
  Kd: ≥ 84500 nM
[5]; [10]
  Kd: ≥ 45200 nM
[6]; [10]
  Kd: ≥ 84500 nM

## QFPGQQQPF
[1]; [11]
  Kd: ≥ 48900 nM
[2]; [11]
  Kd: 185 nM
[3]; [11]
  Kd: ≥ 25900 nM
[4]; [11]
  Kd: 676 nM
[5]; [11]
  Kd: 1530 nM
[6]; [11]
  Kd: 19800 nM

## RTYGVNYTF
[7]; [12]
  Kd: 0.261 nM

## SFYSDPKRFF
[4]; [13]
  Kd: 740 nM
[5]; [13]
  Kd: 124 nM
[6]; [13]
  Kd: 226 nM

## GSAKLRWFVE
[7]; [14]
  Kd: ≥ 22200 nM

## VFQAKSAFV
[1]; [13]
  Kd: ≥ 31400 nM
[2]; [13]
  Kd: 1050 nM
[3]; [13]
  Kd: ≥ 77900 nM
[4]; [13]
  Kd: 1060 nM
[5]; [13]
  Kd: ≥ 78900 nM
[6]; [13]
  Kd: 855 nM

## VFYLYLTFYF
[1]; [10]
  Kd: 566 nM
[2]; [10]
  Kd: 12400 nM
[3]; [10]
  Kd: 621 nM
[4]; [10]
  Kd: 0.0798 nM
[5]; [10]
  Kd: 0.0415 nM
[6]; [10]
  Kd: 0.0611 nM

## SQQKADWIPL
[7]; [14]
  Kd: 2790 nM

## TIGEWAFWE
[8]; [15]
  IC50: ≥ 245000 nM

## SWFITQRNFF
[1]; [10]
  Kd: 828 nM
[2]; [10]
  Kd: 1030 nM
[3]; [10]
  Kd: 12500 nM
[4]; [10]
  Kd: 0.035 nM
[5]; [10]
  Kd: 53.2 nM
[6]; [10]
  Kd: 0.0458 nM

## LYDANYFVCW
[1]; [10]
  Kd: 1130 nM
[2]; [10]
  Kd: 13400 nM
[3]; [10]
  Kd: 9640 nM
[4]; [10]
  Kd: 55.4 nM
[5]; [10]
  Kd: 1440 nM
[6]; [10]
  Kd: 24.5 nM

## KLTDSLSSQ
[8]; [16]
  IC50: 44600 nM

## ALSPPLLLL
[9]; source organism: Escherichia coli E22
  Kd: 157 nM

## KLFYVYYNL
[7]; [12]
  Kd: 0.344 nM

## AGFAAGLTY
[1]; [17]
  Kd: ≥ 38500 nM
[2]; [17]
  Kd: 178 nM
[3]; [17]
  Kd: ≥ 61800 nM
[4]; [17]
  Kd: ≥ 77500 nM
[5]; [17]
  Kd: 6130 nM
[6]; [17]
  Kd: ≥ 39200 nM

## DVIPMVTQM
[3]; [18]
  Kd: 64.2 nM

## EYFMCFKYLL
[4]; [19]
  Kd: 192 nM
[5]; [19]
  Kd: 49 nM
[6]; [19]
  Kd: 9.3 nM

## LTGTFVTAF
[7]; [12]
  Kd: 8.81 nM

## RHLIFSYAF
[7]; [12]
  Kd: 13.6 nM

## KVDTTHVSKV
[9]; source organism: Myxoma virus
  Kd: 42.3 nM

## RTFLIDLAF
[7]; [12]
  Kd: 0.48 nM

## AVLTGGVTL
[7]; source organism: Dengue virus 1 Brazil/97-11/1997
  Kd: 6690 nM

## YFTNDVSFL
[1]; [10]
  Kd: 12900 nM
[2]; [10]
  Kd: ≥ 96800 nM
[3]; [10]
  Kd: 16100 nM
[4]; [10]
  Kd: ≥ 78100 nM
[5]; [10]
  Kd: ≥ 75000 nM
[6]; [10]
  Kd: 18300 nM

## GYVTHGFNL
[1]; [10]
  Kd: ≥ 78100 nM
[2]; [10]
  Kd: ≥ 78900 nM
[3]; [10]
  Kd: ≥ 77900 nM
[4]; [10]
  Kd: 1210 nM
[5]; [10]
  Kd: 839 nM
[6]; [10]
  Kd: 234 nM

## QVFLKMRRIF
[4]; [20]
  Kd: 12300 nM
[5]; [20]
  Kd: 9080 nM
[6]; [20]
  Kd: 401 nM

## PYRVVVLSF
[1]; [10]
  Kd: 1480 nM
[2]; [10]
  Kd: ≥ 93800 nM
[3]; [10]
  Kd: 1040 nM
[4]; [10]
  Kd: 100 nM
[5]; [10]
  Kd: 11500 nM
[6]; [10]
  Kd: 20.8 nM

## ISLFYTFAI
[7]; [12]
  Kd: 0.567 nM

## TSQVPKLLL
[8]; source organism: Variola virus
  IC50: 47400 nM

## TVMAFHLTT
[7]; [18]
  Kd: 19200 nM

## RQMATTTNPL
[9]; source organism: Influenza A virus (A/parakeet/Chiba/1/97(H9N2))
  Kd: 393 nM

## SISKSNAKC
[8]; [16]
  IC50: 35800 nM

## ALAPAPAEV
[8]; source organism: Homo sapiens
  IC50: 52 nM

## IKIPTHRHI
[1]; [21]
  Kd: 16600 nM
[2]; [21]
  Kd: ≥ 76900 nM
[3]; [21]
  Kd: ≥ 77900 nM
[4]; [21]
  Kd: ≥ 57100 nM
[5]; [21]
  Kd: ≥ 78900 nM
[6]; [21]
  Kd: ≥ 24800 nM

## GVIHNSTLQ
[8]; [15]
  IC50: ≥ 121000 nM

## RTLLGLILFV
[9]; source organism: Variola virus
  Kd: 1270 nM

## GYTMHANYI
[1]; [10]
  Kd: ≥ 78100 nM
[2]; [10]
  Kd: ≥ 78900 nM
[3]; [10]
  Kd: ≥ 77900 nM
[4]; [10]
  Kd: 13500 nM
[5]; [10]
  Kd: ≥ 88200 nM
[6]; [10]
  Kd: 6960 nM

## LVAEMDGIQY
[1]; [10]
  Kd: 246 nM
[2]; [10]
  Kd: 102 nM
[3]; [10]
  Kd: 346 nM
[4]; [10]
  Kd: ≥ 70300 nM
[5]; [10]
  Kd: 103 nM
[6]; [10]
  Kd: ≥ 70000 nM

## HHQDTGEES
[8]; [15]
  IC50: ≥ 223000 nM

## QIGDIIIAV
[8]; source organism: Variola virus
  IC50: 293 nM

## EVKQDEDGSF
[3]; source organism: Dengue virus 4 Philippines/H241/1956
  Kd: 69.2 nM

## CYSSVNDRLV
[1]; [22]
  Kd: 11100 nM
[2]; [22]
  Kd: 3960 nM
[3]; [22]
  Kd: ≥ 69700 nM
[4]; [22]
  Kd: 1130 nM
[5]; [22]
  Kd: 13000 nM
[6]; [22]
  Kd: 1870 nM
